The values that follow come from the supplement of paper PMC12042874.

± gives the uncertainty stated by the source.

A short description of the data set: amyloid nucleation score (Sup35N fusion, yeast selection) (log enrichment); library NNK2; higher = more nucleation; inactive = no reads after selection. The procedure, abridged:
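After 24 hours of induction with 100 μM copper sulfate, psi-negative yeast expressing peptides of 20 random codons fused to Sup35N were grown for 7 days at 30°C on medium lacking adenine and uracil. Input and output plasmid inserts were sequenced with Illumina, and sequences with under 100 input reads were discarded. Scores for nucleation are the DiMSum log enrichment of output over input reads, centred on the mode score of non-aggregating sequences.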
The substance FCFISSYVPKLYSLKSQVVI yielded an amyloid nucleation score of -0.988 ± 0.39.

As to FCFMIEGIFMCRLLLSRASF, the amyloid nucleation score entry was “inactive”. The same measure for FCLLPIDQPVTGIFLVR: -0.158 ± 0.63. The same measure for FCNNWDFF: 2.41 ± 0.14; for FCSDGK: 0.186 ± 0.3; for FCSVCDRL: 0.168 ± 0.23. For FCWNYMFVFRIGCFGFDFIG, the amyloid nucleation score entry is “inactive”. Next, FCWRYNSKIRLKHGQDSGPR: -0.343 ± 0.33; FDCRNIREMHTRVYNSCTHP: -0.266 ± 1; FDGHLINTFPRADASIAEDN: -0.454 ± 0.41.

In turn, FDKASLKFCVMLVVRSV showed an amyloid nucleation score of 0.236 ± 1.1. Next, FDLAMGVSLVKRLRLVLCLS: -1.12 ± 0.64; FDLNYPSVSIIGKVLCSGPV: “inactive”; FDMEIFTYGGTSNNFGHCDD: “inactive”. Next, FDMVSVVVYMRAVTTKCGPS: 1.73 ± 0.24.

The substance FDSYTIMVI displayed an amyloid nucleation score of 0.682 ± 0.21. Next, FDVKGRISLNRYSINFNARL: 5.11 ± 0.073.

FEDFLCFSGMRFVFELCADT: the amyloid nucleation score was -0.917 ± 0.78.

For FEGWVWFIPEASEHSYEHVN, the amyloid nucleation score was -0.002 ± 1. Substance FEKEWYSGLCFARAVARGMR returned an amyloid nucleation score of 2.97 ± 0.17. Next, FEQRGVTSRLCSPLSYEERM: -0.82 ± 0.3; FERLNYQLREFYKVIKFSCV: “inactive”; FEVFLM: -0.499 ± 0.41. Next, FEVLIFVDCWFVVMGRETLN: 2.68 ± 0.15; FFFLTHGWEPTVMKEIKSAM: “inactive”. The same measure for FFGALNWGLKQE: 0.646 ± 0.43; for FFGGNCKVK: -0.146 ± 0.32; for FFGLVNWVGLGVHRSMTFAK: -0.609 ± 0.41. Turning to FFGTMV, the amyloid nucleation score is -0.19 ± 0.37. Next, FFGYAGCNRPVNLSYGGRFN: -0.952 ± 0.32; FFHYVNAQVRGWLCTVYIIR: -0.574 ± 0.55.

FFIESSMLWYWDLKRYPMTL: the amyloid nucleation score is -0.225 ± 0.54.

As to FFKRSSFKMGSRITETRYRR, the amyloid nucleation score was -0.728 ± 0.56. In the case of FFLIRSMGSSSAYRLRVCWR, the amyloid nucleation score was -0.37 ± 0.76.

With FFMIEMPVKSTFVGWSRSEG, the amyloid nucleation score was -0.074 ± 0.25. The same measure for FFPPFVNLGVGTYQV: -1.37 ± 0.54; for FFRNIIYRCMREIKFIEPSE: -0.046 ± 0.63. Next, FFSSTMNCVSLKRVKL: -0.432 ± 1.1; FFTSSHNFCYLMGYNMIWFK: “inactive”. Next, FFYFTMWNKHFEFVYNSSPC: -0.613 ± 0.64. In the case of FFYSGRGYTDKWHMGSLPRC, the amyloid nucleation score was -0.964 ± 0.76.

FFYYMRSIT registered an amyloid nucleation score of -1.9 ± 0.78. Next, FGGIASMMFVEMRRGSINEM: 3.51 ± 0.045; FGICLVMRFLWYESSTPWED: -0.446 ± 1. Next, FGKPGPRFLSSPGFSYP: 0.382 ± 0.51; FGLLYYAYNRFMLARINGHT: -0.261 ± 1.1.

For FGNFLLSITII, the amyloid nucleation score was 2.4 ± 0.062.

In turn, FGNRRSCHDIRSWIDRYLVR displayed an amyloid nucleation score of 1.69 ± 0.52.

In turn, FGSVRASGISDFGRMDHGTG returned an amyloid nucleation score of -0.079 ± 0.76.

As to FGYHGSYMWYAFQGHYNKGY, the amyloid nucleation score turned out to be 0.743 ± 0.42. For FHAKRTINMNGATVQYGLYA, the amyloid nucleation score is -0.354 ± 0.76. The substance FHCVVVYNNRQMCSVTKDSS registered an amyloid nucleation score of 7.962 ± 0.031. Substance FHGGNFATDWFLWFINWEVA showed an amyloid nucleation score of -0.259 ± 0.65. Next, FHTNCYKIMMSGRHFHVSFD: 8.932 ± 0.046; FIADYYGGKTHGNLMSALTC: 1.06 ± 0.53. On to FIAFFSWFFGWWRKMQAQAL, for which the amyloid nucleation score entry is “inactive”.

Substance FIAYRFWFWKGVSASKEHGQ showed an amyloid nucleation score of 0.433 ± 0.62. Take FICALTMYICSLY: the amyloid nucleation score is 7.389 ± 0.027.

As to FICSAYFECRRDSYEFFVGC, the amyloid nucleation score entry was “inactive”. In turn, FICVCIVKNKGMGRPCN yielded an amyloid nucleation score of 2.72 ± 0.1. The same measure for FIDFGVVVSWVL: 0.985 ± 0.3; for FIDLYLRFWVCTSFQCAHSI: “inactive”; for FIGCKEHNILNSMKRVD: -0.594 ± 1.1.

Turning to FIIRYLYYKS, the amyloid nucleation score entry was “inactive”. Regarding FIITNWQVSFRL, the amyloid nucleation score is 4.383 ± 0.042.

FIKVFCSLRVDNQVRYRKRL registered an amyloid nucleation score of 2.75 ± 0.1. FILQELCWPVLSSIHFGNVA: the amyloid nucleation score was -1.15 ± 0.36. The same measure for FINSD: “inactive”. For FINSVVKLLLGNDMSCYSCH, the amyloid nucleation score came to 5.65 ± 0.081. The same measure for FIPEERDIWGYAPGNCIFFR: -1.77 ± 0.54. Next, FIRIVSFMRWHATTSALAIA: 0.106 ± 0.36; FISTGRHTICDIVAHNADLF: -0.305 ± 0.8.

Regarding FITEDLVRAFANYVND, the amyloid nucleation score entry was “inactive”. Next, FIVSDSRCVGNVTNGQSVLS: -0.97 ± 0.63; FIWSLRGDDRSCLRLSSLQT: -1 ± 0.63. Next, FKAERSFLLSRYILKREGSQ: -0.972 ± 0.34; FKFVIYRFIFHPSEVPKGD: 0.057 ± 1.1; FKFYGFFD: “inactive”.

On to FKFYYVYYDITFYEC, for which the amyloid nucleation score was -0.454 ± 0.28. Next, FKINESSYVLWDGSSYCRAG: -0.711 ± 1.1. The same measure for FKLICTRSWLRLG: 3.91 ± 0.056; for FKNLAFTFNLQCL: 6.472 ± 0.051. The same measure for FKNRGLLICFEEEHLCAKRR: -1.05 ± 0.78; for FKNTIV: -0.343 ± 0.56. On to FKSVLWCKFLTDIG, for which the amyloid nucleation score was 6.04 ± 0.064. FKSVSRSVALLRYPCLPKFS displayed an amyloid nucleation score of -0.47 ± 0.74. Next, FKVRIVGPLTAGMVE: -1.01 ± 0.34; FLAGVSVFWSYCDSTNLSNQ: -0.111 ± 0.29. The same measure for FLCVTISLDNSVACLPLRYS: 0.532 ± 0.66; for FLCVYDFVVRNIKGIVLRLH: 0.294 ± 0.8; for FLFAKYGSIIDTSVVDRLAR: 0.979 ± 0.5. The same measure for FLFRKYWLTNRWLFMFKEFA: 0.196 ± 0.65; for FLFYTFRLRVFFLNCNSEDW: -1.97 ± 0.54; for FLGCYGLNCVSWKGMMSTPL: 4.31 ± 0.072. Regarding FLGKDWYVVTSVVKYTNAFF, the amyloid nucleation score came out at 0.104 ± 0.45. The same measure for FLIKAKGFYSSLLATGGIEK: “inactive”; for FLISSMHWYCHKPCWGFLGQ: -0.569 ± 0.79. Next, FLLPIWGSNHNTLNFR: -0.547 ± 1.1.

As for FLLRIWTACVLFACKYRGIR, the amyloid nucleation score result was “inactive”.

Regarding FLLRVSSSTKTRRSSGVDL, the amyloid nucleation score was determined as 3.69 ± 0.095. The same measure for FLLTKSRCLEVFA: 4.68 ± 0.065; for FLNHE: “inactive”; for FLNHYWLYFQP: 5.353 ± 0.044. The same measure for FLSVARPTF: “inactive”; for FLTGDFSAHMNLLIWIFEMS: 5.669 ± 0.05. Next, FLTLPVSPSTQFISDRGSAL: 2.64 ± 0.13. In turn, FLVENCC yielded an amyloid nucleation score of -0.39 ± 0.64. Next, FLVFVLLGDR: 6.23 ± 0.07; FLVFYLVCGSGLYMNNGQFF: -0.908 ± 0.41; FLVLIQRKAQGITLQREGTW: 5.84 ± 0.069. The same measure for FLVMGLRYS: 5.407 ± 0.052.

As to FLVYTWSFRNSCRPDLKVVE, the amyloid nucleation score is 0.126 ± 0.8.

The substance FMAWTDSLIYKHAICAATL returned an amyloid nucleation score of -0.031 ± 0.39. FMPSVFMYSLVVFRYVVYMS came in with an amyloid nucleation score of -1.07 ± 0.78. Next, FMRQMLLVLMPWCQRRWACL: -0.382 ± 0.32; FMTFK: 3.14 ± 0.13. Next, FMVQSVFTKLGPSQAFRVHP: -0.14 ± 1; FNATIVDRDLRSRGQNRSLQ: 0.362 ± 0.65; FNDLMYVNYLLCMVH: 4.04 ± 0.095. Next, FNDSPSYWFSHYIAARSSVE: -0.37 ± 0.36; FNFIIAQE: -1.1 ± 1.1.

In the case of FNGCFSCTMG, the amyloid nucleation score worked out at 8.109 ± 0.055. The same measure for FNHLRSARILPGFFSFSRFK: -1.35 ± 0.54; for FNINSPTALSYFMVLEVPLV: 2.42 ± 0.12. Turning to FNKDMSNKFNSDKGELSSFM, the amyloid nucleation score result was “inactive”. The same measure for FNLAPLMVIMPGIMGWGLLG: 1.67 ± 0.16; for FNMFWVLGFTSRGTRGYSTS: 3.9 ± 0.051; for FNNVILSRV: -1.5 ± 0.61. Next, FNSRL: -0.208 ± 1; FNWDNFSKLVAKNNLVISKL: “inactive”; FNYYLCTPIKVGTCPCVDFR: 7.17 ± 0.075. Next, FPARFHACLDYKWFGTGRPS: 2.41 ± 0.12; FPIVFTTKCDIFLSYSLLPS: 1.7 ± 0.13. In turn, FPLLNCKRACLKAAVEAHYR showed an amyloid nucleation score of 0.076 ± 0.61. Take FPLRLLWSGGALCATPPIRV: the amyloid nucleation score came out at 0.655 ± 0.47.

With FPVSVTTISPNIYGQPNTWC, the amyloid nucleation score was -1.41 ± 0.45. For FQCDVSCSVYKSWEMFQGIT, the amyloid nucleation score came out at 0.164 ± 0.8.
